One substance from patent US7255862 can be followed below.

In test [1] the target is feline immunodeficiency virus (FIV) Gag, Villefranche strain, expressed by ALVAC recombinants (vCP21 (feline immunodeficiency virus, Villefranche strain)). Kind of test: sandwich kinetic ELISA, plate coated with pooled FIV env-specific MAb 2 ug/well (mismatched capture control), gag lysate 1 ug/well, control rabbit serum 1:100. On the technique in general: An ELISA detects its analyte on a solid surface through an enzyme-linked reagent.

Test [2] has the same target. Kind of test: sandwich kinetic ELISA, plate coated with pooled FIV gag-specific MAb 2 ug/well, gag lysate 0.2 ug/well, control rabbit serum 1:100.
Test [3] shares this target. Kind of test: sandwich kinetic ELISA, plate coated with pooled FIV env-specific MAb 2 ug/well (mismatched capture control), gag lysate 5 ug/well, control rabbit serum 1:100.
Test [4] shares this target. Kind of test: sandwich kinetic ELISA, plate coated with pooled FIV gag-specific MAb 2 ug/well, gag lysate 5 ug/well, control rabbit serum 1:100.
Test [5] has the same target. Kind of test: sandwich kinetic ELISA, plate coated with pooled FIV env-specific MAb 2 ug/well (mismatched capture control), gag lysate 0.2 ug/well, control rabbit serum 1:100.
Test [6] has the same target. Kind of test: sandwich kinetic ELISA, plate coated with pooled FIV gag-specific MAb 2 ug/well, gag lysate 1 ug/well, control rabbit serum 1:100.

With Rabbit A039 prebleed serum, the KELISA (mOD/min) in test [1] was determined as 0.8 mOD/min; in test [2] it was 1.3 mOD/min; in test [3], 1 mOD/min; in test [4] it was 1 mOD/min; in test [5], 0.9 mOD/min; in test [6] it was 1.2 mOD/min.
